Source: the DeepSol protein solubility set

Experiment: soluble on expression in E. coli; label from the status in PepcDB or PDB records

Sequence	soluble on expression in E. coli
GKRDNLEIDRTGLALTAFYARNLAVPERRRVEHPQVLRGKQLFHEAGCPACHVPKFVTHRLKDQPEQSFQLIWPYTDLLLHDMGEGLADGRPEGRATGREWRTAPLWGIGLTEQVSGHANFLHDGRARSILEAVLWHGGEAEAARARVMALPAPDRAALVAFVEDL	not soluble
MGSDKIHHHHHHMRLTHVDQLNLPFGTLSSYHPYASAPGEAVPVSFDQQRHVGAGERPGSWMAISVSMPKAISREELERAWLEVIERHGTLRTVFSTGMGGEVQQHRIDVGPGKWIDHAVAPGESINEALRAVLNRQCSPYSRPSHSLCIIDAHPRPTVIIGSDHSHVDMWSMLVIVRDLLAALDMELPVEPPLAFESHTAELLAAPPAPERIHQRWREILEAGGGKMPQFPLPLGDAISMPERVEVRDIFGVNGLAIYSARARAQQVSSLALTISVMADVTAALADLPLRAVFPVHSRFDQRWHDSVGWFISNSVIEVPDSDPHTAAQAVREAVSLGSYPLAELLEPWGGMPETPGMFAISWLDLRRLPVSIDDIGLQAQYVSASLRTDGVMLWFILDRSGAHLRCRYPDSLVARENVGRWIDAIVAQMRAEAGTVNLQAGGEQLTLRHGTRADISEIAPLLARNAADPCELVDLEHALDLLTHESSHFLAVVRNARGKIIAAMQLTIVPEFSRGGALHLHIEGPFIIPEYRTTDLDKKLRAWAVEHGRARGVKVEEVVG	not soluble
MSLIQLRPCPKSYTRDQDKATTPAETVRRVRERLASLDISILAETRRVDVGRLGIPVFLSVCGADARAVMPTRKQMGKGASLEQAQASALMELMERYSFFTFWRDMPGMVEATWSEARNRFGDALIPVDEILHSVHDTLSPDDAVRALDLWRWKFFPATDITHGREVWLPLDWFKKLGEFNGSSAGNTEEESILQGSCELVERHVCCLIDRTQPELPTIDPASLDDPVLLELAAAFERNGIRLVLKDFSMGMPVPTVGAIAWDPATFPERSEIVYTAGTSSSPVKAAIRAVTEVAQLAGDFCTGACYEASGLSKYESLDDIAWLVAGPVVALDTLPSVETDDIRDELAALCDGLAATGHTLYSVSTMNPDVGVNTHYNIVPGFHFRERDRNAEGHHHHHH	not soluble
AHHHHHHGSIIIMDNGGQYVHRIWRTLRYLGVEAKIIPNTTPLDEIKAMKPKGIIFSGGPSLENTGNCEKILEHYEEFNVPILGICLGHQLIAKFFGGEVGRGEKAEYSLVEIEIIDENDIFKGLPRKVRVWESHMDEVKKLPPKFKLLARSDTCPVEAMKHEELPIYGVQFHPEVAHTEHGADILRNFAKICGEL	soluble
FLGELLIDLPLPVDTPSVDQCEKCRACITSCPTQAIVEDKVVDARRCISYLTIEFDGVIPEEFRKPMGNRIYGCDDCQLVCPWNRYADVTEQEDFHRRESFHNPDLVE	not soluble
MITPDLESGVKVWHLVKNHDHGDQKEGDRGSKMVSEIYLTRLLATKGTLQKFVDDLFETLFSTVHRGSALPLAIKYMFDFLDEQADRHSIHDTDVRHTWKSNCLPLRFWVNVIKNPQFVFDIHKGSITDACLSVVAQTFMDSCSTSEHRLGKDSPSNKLLYAKDIPSYKNWVERYYADIAKLPAISDQDMNAYLAEQSRLHATEFNMLSALNEIYSYVSKYSEELIGALEQDEQARRQRLAYKVEHLINAMSIES	not soluble
MGSDKIHHHHHHLTNQMVYVYKDGKQVVSSQCVTGCIAKGHGTPTGVYSIFSMDKDRYLRGDGYKSWVNFFVPFNGGIGFHDASWRSTFGGNIYLYSGSHGCINMPYSEVKKLFANVSMGETVIVYGGATSVDGKEQSFTGQDAYSVTEGDASFNLGVTAQDNAKLTYVSDNEWVAKVDESGNVTPVGVGTATITVKSEATAGYRAGTKTITVTVNAKAQPQVQPQKPAQQQPQKPAQQQQPQKPAAKKDASVNVSESDVSLEINGTKKINISVSSDTGATVEVESGDASVATLDSNGNIVAKNEGQVTYKVYTKATGSYNASNVSYVTIKVSKPAEPDDSGADADRE	not soluble
MSLSNIAVSEKDLQRFCRDLLKQSLPDEEAEVIAETLVDADLRGVTSHGVQRVAGYLKRMEDGIIERKTDISVVQDSFATALLDANNGWGQVAGVKAMEMAIQKAGQYGTSFVGVSNSNHFGTASFYTRMAAEKGFIGISMTNASPIMVPFGAKEPSLGPNPISISIPAGEGKKPIILDMSTSNVARGKIMVAKKNKESIPEGWAITKDGKQTTDADEAWEGFVLPMGPKGSGLAIIIDILSGVLTGSLFGKRIPRQYDDPYPQQLGHLFGAINIENFGEPELFYQNVLEKIEETISSEPSEGFDQVYMPGDMESQRKKEYKENGIPLSQEIINELRKTGEKYGVDLEHYLSQNKQREGHHHHHH	soluble
SLKIKHEHIESVLLALAAEKGQAWVANAITEEYLRQGGGELPLVPGKDWNNQQNIYHRWLKGETNAQREKIQKLIPAVLAILPRELRHRLCIFDTLERRALLAAQDALSTAIDAHDDAVQAVYRKAHFSGGGSPSDSVVVH	soluble
MCHEEVFSCCRTRTFHFLRSYGHDGWRNDGRNDERKADVSAHVLLPLHDAYDADDVHDADDGYALHGYEPHDGNDEHADDGSGNHEDCNRTQAKVYEGTYGKTPEENEKVIFSSFFPLFLEE	not soluble
MIIGIDVGGTNTDAAIVSDEIKTIKLPNEAGIGGILKEISKEANLIEEKVVVSTSWPLNLIISKFSESRTLSLVIPGPGLNYSEYGEVLKGYVNHRGDVVEDIDEYEIAAIFRENSYDNVAISSKFSVRNGSLEDRVAEIVRNYVEDYRIALSHYAGGMNYPARIHTTVVNAKIRETVYRLTELIKAYAGDFYYFKGDGGIVPYTIALNNPSELYNSSPAAVALGAVYLTGEKNALVVDIGGTSTDFVEVIDGMPKIVEGIELAGRKTLIRCVDSVSIPFGGDSVVENGKLVPVCSKPIAFGGESFTLTDALNCAGYEIGDYRSSRKYECDVEKALNQFVSLAATTVREIGCKKIVGTGYLAPYLIPEVAKAAGVEYVIPDHYESANAVGVAVSRVSLTLYVRIDTEKCFAAYNGHTESCPFKPGSLPDDEQILEVAKEKVVEVAKKFGASEEELGKVRTVYFNSFTVVRGGMKRGVIADVIVQIEPGIRYGGLAAALEHHHHHH	not soluble
MGSSHHHHHHSSGLVPRGSHMASMAGLGHPAAFGRATHAVVRALPESLGQHALRSAKGEEVDVARAERQHQLYVGVLGSKLGLQVVELPADESLPDCVFVEDVAVVCEETALITRPGAPSRRKEVDMMKEALEKLQLNIVEMKDENATLDGGDVLFTGREFFVGLSKRTNQRGAEILADTFKDYAVSTVPVADGLHLKSFCSMAGPNLIAIGSSESAQKALKIMQQMSDHRYDKLTVPDDIAANCIYLNIPNKGHVLLHRTPEEYPESAKVYEKLKDHMLIPVSMSELEKVDGLLTCCSVLINKKVDS	soluble
MGSDKIHHHHHHMLLEIRHVTQYHYERPVRESLMELWMQPQKTARQRLVSFELDLNPAAQVFSYADSFGNAVYHFDVPQPHDNLTIIARSAVETESPGERPDQLDMGEWDRLRSEFVRGECFDFLRPHGFVRTTEALQTFINEHDLDALKRRDPLTAVRSLSETIYGAFEYQPGVTDADSPIDLTLSAGRGVCQDFAHIMLAVCRGWGVPARYVSGYLFTDRDAGDRSDPDATHAWVEVFLPSLRWVGFDPTNNMMAGERHVAVAVGRDYADVTPSRGVYKGDAESQLAVGVSVRRARAALAEPEFLRMARPSFAGGRRRHDTALREELHQQQQQQQ	not soluble
MVLDSGTQVYEQAPPRPPAGSPSQHHKLKPSNGNGPPLYPWPESLGMPLALAVPSALQQQTMWQTFSKLHLEQSSHMRRSESTYSVNSTGRRGRGKAPIGRGCDPGGTLRPAASLPHIAKIRKDVGSSSSKSPCMLVALRPTNMDQEREKFFQSHYTYNPQFEYQEPMPMSVLEKYQEASAQFMNQAVGIIEAVLEKFGTYENFEAATGGQLLTKCQIWSTVRKYMQKEGCVGEIVVQLSEDLLSQAVMMVENSRPTLAINLTGARQYWLEGMLRHEIGTHYLRGVNNSRQPWHSTEGRLQYGLQPANPTEEGLASLHSVLFRKQPFLWRAALLYYTIHQAAHMSFRQLFQDLAQYVQDEGVRWEYCVRAKRGQTDTSQPGCFSKDQVYLDGILRILRHRHTIDFQLLTSLGKVSYEDVEQLRPYGVLDNTRVPHFMKDLERYRQQLEHIMTTNRLDEAELGRLLPD	soluble
MSLIKWGFIGCGEVTKTKSGPAFQKVEHSEVVAVMSRDGAKAKAYAKERGIRKWYDDAQELIDDPEVNAIYIATPPSSHATYAIMAMKAGKPAYIEKPMAVTYEECTRINRISKETGVPCFVAYYRRYLPYFQKVKEMVENGSIGNVINVQVRFAQPPRDLDYNRENLPWRVQADIAGGGYFYDLAPHQIDLLQDMFGCILEASGYKSNRGGLYPAEDTLSACFQFDNGLVGSGSWCFVAHDSAREDRIEIIGDKGMICFSVFTYEPIGLHTERGREEICIGNPEHVQQPLIQAVVDHLLGKSVCSCDGESATLTNWVMDKILGKLEGHHHHHH	soluble
LSSVSSIPDYAEQLRTADLRVTRPRVAVLEAVNAHPHADTETIFGAVRFALPDVSRQAVYDVLHALTAAGLVRKIQPSGSVARYESRVGDNHHHIVCRSCGVIADVDCAVGEAPCLTASDHNGFLLDEAEVIYWGLCPDCSISDTSRSHP	soluble
MGSDKIHHHHHHMSNSSIKSKTALLRNGETQKGNGYPEANDYSARILETMQTGVVFFNTEQIISGINNLACEDLQIPRDPSGHKITDIISIIHQEKDIFPELIARLKSSETDMEKLPIDTLIRSLETKVQFFASGCIMQLETGRYLLAFRNTMDEVTHEHLLSMILARTKIFPWFFDLKRNKMLIDAHWFSYLGIPAGDCEITIEKFFSRVHPNERDMLADALQKQLSEKEIPDSFSYRLQRGDGSWEWFSEQSMYLSKTNDGSPYRIVGVCHSIQEHKNTEDKLRAARNKAQESDRLKSAFLANMSHEIRTPLNAIVGFSNLIAGGIVDLDTEEARDYSALISKNCNYLLTLVSDVLDLSCIESDTMTFKFTVYPLTRLLTEIYQKYENRIPQEVQFNLLLPTDNVEIETDAVRLRQVIEHLLDNAAKFTVKGHIDIGYALSDHGEKIYVFVADTGCGIPSDQYKKVFERFYKINSFVQGAGLGLSVCKTIVEGLGGTINVYSQLKEGSRFSVILPLNRLHK	not soluble
MGSDKIHHHHHHVDIQALKKVSELDVFSLLVFKLIYETGFANFAAKELAVSAPKISRCLTSLRAIFNDELFFRRQQGLKPTPLAERLYQPVCQLCDMVSQIERVADDRLNHHQTPILHIAVSPSIITSVAIALSKLPRDVIGKVKLHSWQADTEELIYNGELDFGIGFETQDTHGLEAYPIANVTSLCVVGNTNHLFWAGAEQIKLEDIIQHPIVYLRCKGFNNRIDPLELYCQTHGLLLEDIECARKLEDWYWHILTMDSLAITICNEGSFAQQIPQLRVERLPQSEFTKLNSVMAMPSYCLIERAEHYRRYSLNVKEMIIDIIKSLLV	not soluble
MDHEIPVRIVDNQEYMKVVRSILEEGKEVPLVVTGNSMMPFLIDRRDQVLIKRIERPLKKGDIAFFQRENGQYIMHRIHFMRKDDRTGENQFYFIGDGQKNIEGPIKETRIFGVITGVLRKGKYLDEHTFTWRFFENIWRYVIPFRPLIIKIYSLFKR	not soluble
PRRLEPLIEDGLIDEVVRPLMSGKEASVYVVRCGDSLRCAKVYKEANKRSFRQAAEYQEGRKVRNSRQARAMAKGSKYGRREQEEAWQNAEVAALFRLAGAGVRVPKPYDFLDGVLLMELVADADGDAAPRLNDVTLEPDEARRHHAFLIRQIVAMLCAGLVHGDLSEFNVLLGPDGPVIIDLPQAVDAAGNNHAFSMLERDVGNMAAYFGRFAPELRQTRYAKEMWALYEAGELTAETPLSGTFVEAEEAADVRAVLREIEAAQREEARRQALRQADDAPRGEREE	not soluble
